Measurements published in article PMC11883276.

Columns and labels:
[1] = target: Fc-tagged extracellular domain of E-cadherin (E-cad-Fc) (UniProt P12830)
[2] = target: Fc-tagged extracellular domain of N-cadherin (N-cad-Fc) (UniProt P19022)
[3] = target: Fc-tagged extracellular domain of E-cadherin (E-cad-Fc) (UniProt P12830); experiment: density of cells attached to cadherin-coated substrates; A431-D^E-cad or A431-D^N-cad+FGFR cells counted 90 min after seeding in 0.5% serum with the fibronectin-blocking antibody 16G3 on E-cad-Fc or N-cad-Fc substrates; further samples treated with Gefitinib, BGJ398, DECMA-1 or anti-N-cad antibody
[4] = target: Fc-tagged extracellular domain of N-cadherin (N-cad-Fc) (UniProt P19022); experiment: as above
[5] = target: full-length human E-cadherin fused to GFP at the C-terminus, on A431-D cells (A431-D^E-cad) (human) (UniProt P12830)
[6] = target: full-length wild-type human N-cadherin on A431-D cells (A431-D^N-cad; A431-D^N-cad+FGFR) (human) (UniProt P19022)
[7] = target: full-length wild-type human N-cadherin on A431-D cells (A431-D^N-cad; A431-D^N-cad+FGFR) (human) (UniProt P19022); remark: listed apart in the source
[8] = target: endogenous human E-cadherin on MCF-7 cells (human) (UniProt P12830)
[9] = target: Fc-tagged extracellular domain of E-cadherin (E-cad-Fc) (UniProt P12830); remark: listed apart in the source
[10] = target: Fc-tagged extracellular domain of N-cadherin (N-cad-Fc) (UniProt P19022); remark: listed apart in the source
[11] = target: Fc-tagged extracellular domain of E-cadherin (E-cad-Fc) (UniProt P12830); remark: listed apart in the source
[12] = target: Fc-tagged extracellular domain of N-cadherin (N-cad-Fc) (UniProt P19022); remark: listed apart in the source
[13] = target: Fc-tagged extracellular domain of N-cadherin (N-cad-Fc) (UniProt P19022); experiment: capillary shear flow cell adhesion assay; as a1, but with A431-D^N-cad+FGFR cells (N-cad co-expressed with FGFR1) on N-cad-Fc-coated capillaries
[14] = target: Fc-tagged extracellular domain of N-cadherin (N-cad-Fc) (UniProt P19022); experiment: capillary shear flow cell adhesion assay; cadherin-Fc (50 µg/ml) physisorbed on the inner walls of glass capillaries, blocked with BSA; A431-D^E-cad or A431-D^N-cad cells bound 20 min under static conditions, room temperature, low-serum medium with 2 mM Ca2+, then flow increased every 30 s; WSS50 from fits to Eqn 1

Substance: full-length human E-cadherin fused to GFP at the C-terminus, on A431-D cells (A431-D^E-cad) (from UniProt P12830 23-882) (receptor)
- RMS traction stress of A431-D^E-cad cells on E-cad-Fc-coated 40 kPa gels, 0.5% serum [1]: 160 Pa
- RMS traction stress of A431-D^E-cad cells on N-cad-Fc-coated 40 kPa gels, 0.5% serum [2]: 82 Pa
- density of cells retained on the substrate [3]: 25 cells/mm^2
- density of cells retained on the substrate [4]: 19 cells/mm^2

Substance: Fc-tagged extracellular domain of N-cadherin (N-cad-Fc) (from UniProt P19022 160-724) (Fc fusion)
- relative change of cell stiffness during bead twisting (MTC), N-cad beads on A431-D^E-cad cells [5]: -3.6%
- relative change of cell stiffness during bead twisting (MTC), N-cad beads on A431-D^N-cad cells (no FGFR) [6]: 4%
- relative change of cell stiffness during bead twisting (MTC), N-cad beads on A431-D^N-cad+FGFR cells [7]: 17%

Substance: Fc-tagged extracellular domain of E-cadherin (E-cad-Fc) (from UniProt P12830 155-709) (Fc fusion)
- relative change of cell stiffness during bead twisting (MTC), E-cad beads on A431-D^E-cad cells [5]: 16%
- relative change of cell stiffness during bead twisting (MTC), E-cad beads on MCF-7 cells [8]: 17%
- relative change of cell stiffness during bead twisting (MTC), E-cad beads on A431-D^N-cad cells (no FGFR) [6]: -1%

Substance: full-length wild-type human N-cadherin on A431-D cells (A431-D^N-cad; A431-D^N-cad+FGFR) (from UniProt P19022 26-906) (receptor)
- RMS traction stress of A431-D^N-cad+FGFR cells on E-cad-Fc-coated 40 kPa gels, 0.5% serum [9]: 100 Pa
- RMS traction stress of A431-D^N-cad+FGFR cells on N-cad-Fc-coated 40 kPa gels, 0.5% serum [10]: 176 Pa
- RMS traction stress of A431D^N-cad cells (no FGFR) on E-cad-Fc-coated 40 kPa gels [11]: 88 Pa
- RMS traction stress of A431D^N-cad cells (no FGFR) on N-cad-Fc-coated 40 kPa gels [12]: 85 Pa
- WSS50 (wall shear stress at which 50% of the cells are retained) [13]: 17 dynes/cm^2
- density of cells attached to the substrate [3]: 15 cells/mm²
- density of cells attached to the substrate [4]: 22 cells/mm²
- WSS50 (wall shear stress at which 50% of the cells are retained) [14]: 15 dynes/cm^2
